Results from patent publication US20220153847A1 (Chugai, published 2022).
Changes are numbered by the printed parent chain.

B1: DQN0344xx//DQN0385ee (bispecific antibody, human IgG1, kappa)
heavy 1: QSLEESGGGLVKPGGTLTLTCTASGFSFSSSYWMCWVRQAPGKGLEWVACVYGGSDTTYYASWTKGRFTISKGSSTTVALQVTSLTAADTATYFCARDPLNYYYYGELNLWGPGTLVTVSSASTKGPSVFPLAPSSKSTSGGTAALGCLVKDYFPEPVTVSWNSGALTSGVHTFPAVLQSSGLYSLSSVVTVPSSSLGTQTYICNVNHKPSNTKVDKRVEPKSCDKTHTCPPCPAPELRRGPSVFLFPPKPKDTLMISRTPEVTCVVVDVSHEDPEVKFNWYVDGVEVHNAKTKPREEQYNSTYRVVSVLTVLHQDWLNGKEYKCKVSNKALPAPIEKTISKAKGQPREPQVYTLPPSREEMTKNQVSLTCLVKGFYPSDIAVEWESNGQPENNYKTTPPYLDSDGSFFLYSKLTVDKSRWQQGNVFSCSVMHEALHNHYTQESLSLSP
light 1: AVVLTQTASPVSAAVGGTVTIRCQATENIYSGLAWYQQKPGQPPKVLIYYVSTLASGVPSRFKGSGSGTEYTLTISGVQCDDAATYYCQTYHDISNVTFGGGTKVEIKRTVAAPSVFIFPPSDEQLKSGTASVVCLLNNFYPREAKVQWKVDNALQSGNSQESVTEQDSKDCTYSLSSTLTLSKADYEKHKVYACEVTHQGLSSPVTKSFNRGEC
heavy 2: QEQLEESGGDLVKPGASLTLTCTASGFSFYSSYWICWVRQAPGKGLEWIACIDTGSGSIDYASWVNGRFTISKTSSTTVTLQMTSLTVADTATYFCARDIGIDYNFWGPGTLVTVSSASTKGPSVFPLAPSSKSTSGGTAALGCLVKDYFPEPVTVSWNSGALTSGVHTFPAVLQSSGLYSLSSVVTVPSSSLGTQTYICNVNHKPSNTKVDKRVEPKSCDKTHTCPPCPAPELRRGPSVFLFPPKPKDTLMISRTPEVTCVVVDVSHEDPEVKFNWYVDGVEVHNAKTKPREEQYNSTYRVVSVLTVLHQDWLNGKEYKCKVSNKALPAPIEKTISKAKGQPREPQVYTLPPSRKEMTKNQVSLTCLVKGFYPSDIAVEWESNGQPENNYKTTPPYLDSDGSFFLYSKLTVDKSRWQQGNVFSCSVMHEALHNHYTQKSLSLSP
light 2: AFELTQTPSFVEAAVGGTVTIKCQATQSISSYLNWYQQKPGQPPKLLIYYASTLASGVPSRFKGSGSGTEFSLTISGVECADAATYYCHYGISYVSFGGGTKVEIKRTVAAPSVFIFPPSDEQLKSGTASVVCLLNNFYPREAKVQWKVDNALQSGNSQESVTEQDSKDCTYSLSSTLTLSKADYEKHKVYACEVTHQGLSSPVTKSFNRGEC
B2: DQN0385ee//IC17 (bispecific antibody, human IgG1, kappa)
heavy 1: B1 heavy 2 with K356E, K439E
light 1: B1 light 2
heavy 2: QVQLQQSGPQLVRPGASVKISCKASGYSFTSYWMHWVNQRPGQGLEWIGMIDPSYSETRLNQKFKDKATLTVDKSSSTAYMQLSSPTSEDSAVYYCALYGNYFDYWGQGTTLTVSSASTKGPSVFPLAPSSKSTSGGTAALGCLVKDYFPEPVTVSWNSGALTSGVHTFPAVLQSSGLYSLSSVVTVPSSSLGTQTYICNVNHKPSNTKVDKRVEPKSCDKTHTCPPCPAPELRRGPSVFLFPPKPKDTLMISRTPEVTCVVVDVSHEDPEVKFNWYVDGVEVHNAKTKPREEQYNSTYRVVSVLTVLHQDWLNGKEYKCKVSNKALPAPIEKTISKAKGQPREPQVYTLPPSRKEMTKNQVSLTCLVKGFYPSDIAVEWESNGQPENNYKTTPPYLDSDGSFFLYSKLTVDKSRWQQGNVFSCSVMHEALHNHYTQKSLSLSP
light 2: DIQMTQSSSSFSVSLGDRVTITCKASEDIYNRLAWYQQKPGNAPRLLISGATSLETGVPSRFSGSGSGKDYTLSITSLQTEDVATYYCQQYWSTPYTFGGGTKLEVKRTVAAPSVFIFPPSDEQLKSGTASVVCLLNNFYPREAKVQWKVDNALQSGNSQESVTEQDSKDSTYSLSSTLTLSKADYEKHKVYACEVTHQGLSSPVTKSFNRGEC

Tests used:
[1] = target: DQ2.5/alpha 1 gliadin peptide on IHW9023 cells (human); assay: cell-based or functional assay
[2] = target: DQ2.5/alpha 2 gliadin peptide on IHW9023 cells (human); assay: cell-based or functional assay
[3] = target: DQ2.5/omega 1 gliadin peptide on IHW9023 cells (human); assay: cell-based or functional assay
[4] = target: DQ2.5/omega 2 gliadin peptide on IHW9023 cells (human); assay: cell-based or functional assay
[5] = target: DQ2.5/gamma 1 gliadin peptide on IHW9023 cells (human); assay: cell-based or functional assay
[6] = target: DQ2.5/BC hordein peptide on IHW9023 cells (human); assay: cell-based or functional assay
[7] = target: DQ2.5/alpha 1b gliadin peptide on IHW9023 cells (human); assay: cell-based or functional assay
[8] = target: DQ2.5/gamma 4a gliadin peptide on IHW9023 cells (human); assay: cell-based or functional assay
[9] = target: T1, HLA-DQ2.5/33mer gliadin peptide complex on Ba/F3 cells (human); assay: FACS, Ba/F3 cells; IC17=0%, DQN0139bb//IC17=100%;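 further: flow cytometry binding of anti-HLA-DQ antibodies at 5 µg/mL, incubated 30 min at room temperature with Ba/F3 lines presenting HLA-DQ/peptide complexes; antibody tested at 5 microgram/mL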
T1 construct: whole, on cells; also called Ba/F3-HLA-DQ2.5/33mer gliadin
Excerpt: (§1) The binding of anti-HLA-DQ antibodies to Ba/F3-HLA-DQ2.5, Ba/F3-HLA-DQ2.2, Ba/F3-HLA-DQ7.5, Ba/F3-HLA-DQ8, Ba/F3-HLA-DQ5.1, Ba/F3-HLA-DQ6.3, Ba/F3-HLA-DQ7.3, Ba/F3-HLA-DR, Ba/F3-HLA-DP, Ba/F3-HLA-DQ2.5/CLIP, Ba/F3-HLA-DQ2.5/HBV, Ba/F3-HLA-DQ2.5/Salmonella, Ba/F3-HLA-DQ2.5/TPO, Ba/F3-HLA-DQ2.5/M. bovis, Ba/F3-HLA-DQ2.5/alpha 1 gliadin, Ba/F3-HLA-DQ2.5/alpha 2 gliadin, Ba/F3-HLA-DQ2.5/gamma 1 gliadin, Ba/F3-HLA-DQ2.5/gamma 2 gliadin, Ba/F3-HLA-DQ2.5/omega 1 gliadin, Ba/F3-HLA-DQ2.5/omega 2 gliadin, Ba/F3-HLA-DQ2.5/BC hordein, Ba/F3-HLA-DQ2.5/alpha 3 gliadin, Ba/F3-HLA-DQ2.5/alpha 1b gliadin, Ba/F3-HLA-DQ2.5/gamma 4b gliadin, Ba/F3-HLA-DQ2.5/avenin 1, Ba/F3-HLA-DQ2.5/avenin 2, Ba/F3-HLA-DQ2.5/avenin 3, Ba/F3-HLA-DQ2.5/hordein 1, Ba/F3-HLA-DQ2.5/hordein 2, Ba/F3-HLA-DQ2.5/secalin 1, Ba/F3-HLA-DQ2.5/secalin 2, Ba/F3-HLA-DQ2.5/14mer 1, Ba/F3-HLA-DQ2.5/33mer gliadin, Ba/F3-HLA-DQ2.5/26mer gliadin, was tested. 5 microgram/mL of each of the anti-HLA-DQ antibodies was incubated with each cell line for 30 minutes at room temperature and washed with FACS buffer (2% FBS, 2 mM EDTA in PBS).

HLA-DP on Ba/F3 cells = target: T2, HLA-DP on Ba/F3 cells (human, UniProt P20036 29-222; P04440 30-225, limits assumed); assay: FACS on Ba/F3-HLA-DP cells, single antibody concentration, goat F(ab')2 anti-human IgG-PE
T2 construct: whole, on cells; also called Ba/F3-HLA-DP

HLA-DR on Ba/F3 cells = target: T3, HLA-DR on Ba/F3 cells (human, UniProt P01903 26-216; P79483 30-227, limits assumed); assay: FACS on Ba/F3-HLA-DR cells, single antibody concentration, goat F(ab')2 anti-human IgG-PE
T3 construct: whole, on cells; also called Ba/F3-HLA-DR
T3 MHC II alpha: not shown
T3 MHC II beta: not shown

HLA-DQ5.1 on Ba/F3 cells = target: T4, HLA-DQ5.1 on Ba/F3 cells (human, limits assumed); assay: FACS on Ba/F3-HLA-DQ5.1 cells, single antibody concentration, goat F(ab')2 anti-human IgG-PE
T4 construct: whole, on cells; also called Ba/F3-HLA-DQ5.1
T4 MHC II alpha: not shown
T4 MHC II beta: not shown

HLA-DQ6.3 on Ba/F3 cells = target: T5, HLA-DQ6.3 on Ba/F3 cells (human, UniProt P01920 33-230, limits assumed); assay: FACS on Ba/F3-HLA-DQ6.3 cells, single antibody concentration, goat F(ab')2 anti-human IgG-PE
T5 construct: whole, on cells; also called Ba/F3-HLA-DQ6.3
T5 MHC II alpha: not shown
T5 MHC II beta: not shown

[10] = target: HLA-DQ2.5/33mer gliadin peptide on IHW9088 cells (human); assay: cell-based or functional assay
HLA-DQ2.2 on Ba/F3 cells = target: T6, HLA-DQ2.2 on Ba/F3 cells (human, UniProt P01909 24-216, limits assumed); assay: FACS, Ba/F3 cells; IC17=0%, DQN0139bb//IC17=100%;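 further: flow cytometry binding of anti-HLA-DQ antibodies at 5 µg/mL, incubated 30 min at room temperature with Ba/F3 lines presenting HLA-DQ/peptide complexes; antibody tested at 5 microgram/mL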
T6 construct: whole, on cells; also called Ba/F3-HLA-DQ2.2
Excerpt: as §1
T6 MHC II alpha: not shown
T6 MHC II beta: not shown

HLA-DQ7.5 on Ba/F3 cells = target: T7, HLA-DQ7.5 on Ba/F3 cells (human, UniProt P01909 24-216; P01920 33-230, limits assumed); assay: FACS, Ba/F3 cells; IC17=0%, DQN0139bb//IC17=100%;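 further: flow cytometry binding of anti-HLA-DQ antibodies at 5 µg/mL, incubated 30 min at room temperature with Ba/F3 lines presenting HLA-DQ/peptide complexes; antibody tested at 5 microgram/mL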
T7 construct: whole, on cells; also called Ba/F3-HLA-DQ7.5
Excerpt: as §1

HLA-DQ8 on Ba/F3 cells = target: T8, HLA-DQ8 on Ba/F3 cells (human, UniProt P01909 24-216; P01920 33-230, limits assumed); assay: FACS, Ba/F3 cells; IC17=0%, DQN0139bb//IC17=100%;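 further: flow cytometry binding of anti-HLA-DQ antibodies at 5 µg/mL, incubated 30 min at room temperature with Ba/F3 lines presenting HLA-DQ/peptide complexes; antibody tested at 5 microgram/mL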
T8 construct: whole, on cells; also called Ba/F3-HLA-DQ8
Excerpt: as §1
T8 MHC II alpha: not shown
T8 MHC II beta: not shown

HLA-DQ7.3 on Ba/F3 cells = target: T9, HLA-DQ7.3 on Ba/F3 cells (human, UniProt P01909 24-216; P01920 33-230, limits assumed); assay: FACS, Ba/F3 cells; IC17=0%, DQN0139bb//IC17=100%
T9 construct: whole, on cells; also called Ba/F3-HLA-DQ7.3
Excerpt: as §1
T9 MHC II alpha: not shown
T9 MHC II beta: not shown

HLA-DQ2.5 on Ba/F3 cells = target: T10, HLA-DQ2.5 on Ba/F3 cells (human, UniProt P01909 24-216, limits assumed); assay: FACS, Ba/F3 cells; IC17=0%, DQN0139bb//IC17=100%
T10 construct: whole, on cells; also called Ba/F3-HLA-DQ2.5
Excerpt: as §1

T2 sequence (P20036 29-222 limits assumed, chain 1 of 4, other chains not shown): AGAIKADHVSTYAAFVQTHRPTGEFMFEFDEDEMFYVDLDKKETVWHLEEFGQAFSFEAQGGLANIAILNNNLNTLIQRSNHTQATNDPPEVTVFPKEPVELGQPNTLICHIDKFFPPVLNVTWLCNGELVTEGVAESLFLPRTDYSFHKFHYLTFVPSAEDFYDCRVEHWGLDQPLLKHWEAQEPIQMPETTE
T2 sequence (P04440 30-225 limits assumed, chain 2 of 4, other chains not shown): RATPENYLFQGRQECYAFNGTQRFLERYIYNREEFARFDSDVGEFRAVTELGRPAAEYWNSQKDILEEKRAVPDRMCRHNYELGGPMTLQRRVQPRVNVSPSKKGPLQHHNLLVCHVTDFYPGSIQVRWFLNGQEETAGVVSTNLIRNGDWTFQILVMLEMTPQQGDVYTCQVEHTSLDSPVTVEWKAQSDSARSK

Binder	IC50, Jurkat NFAT-Luc T cell activation [1]	IC50, Jurkat NFAT-Luc T cell activation [2]	IC50, Jurkat NFAT-Luc T cell activation [3]	IC50, Jurkat NFAT-Luc T cell activation [4]	IC50, Jurkat NFAT-Luc T cell activation [5]	IC50, Jurkat NFAT-Luc T cell activation [6]	IC50, Jurkat NFAT-Luc T cell activation [7]	IC50, Jurkat NFAT-Luc T cell activation [8]	% MFI [9]	binding result (HLA-DP on Ba/F3 cells)	binding result (HLA-DR on Ba/F3 cells)	binding result (HLA-DQ5.1 on Ba/F3 cells)	binding result (HLA-DQ6.3 on Ba/F3 cells)	IC50 (read off the curve) [10]	% MFI (HLA-DQ2.2 on Ba/F3 cells)	% MFI (HLA-DQ7.5 on Ba/F3 cells)	% MFI (HLA-DQ8 on Ba/F3 cells)	% MFI (HLA-DQ7.3 on Ba/F3 cells)	% MFI (HLA-DQ2.5 on Ba/F3 cells)
B1	19 ng/mL	0.606 ng/mL	17.7 ng/mL	3.23 ng/mL	46.9 ng/mL	33.1 ng/mL	59.4 ng/mL	892 ng/mL	91.3%	no binding (tested: 5 microgram/mL)	no binding (tested: 5 microgram/mL)	no binding (tested: 5 microgram/mL)	no binding (tested: 5 microgram/mL)	–	–	–	–	–	–
B2	–	–	–	–	–	–	–	–	–	–	–	–	–	~0.06 microgram/mL	0.3%	0.1%	0.1%	0.1%	0.1%
